Laboratory results from IntAct's records for PubMed 34606829.

B1: ALK tyrosine kinase receptor (Homo sapiens), Q9UM73 (parent)
chain: MGAIGLLWLLPLLLSTAAVGSGMGTGQRAGSPAAGPPLQPREPLSYSRLQRKSLAVDFVVPSLFRVYARDLLLPPSSSELKAGRPEARGSLALDCAPLLRLLGPAPGVSWTAGSPAPAEARTLSRVLKGGSVRKLRRAKQLVLELGEEAILEGCVGPPGEAAVGLLQFNLSELFSWWIRQGEGRLRIRLMPEKKASEVGREGRLSAAIRASQPRLLFQIFGTGHSSLESPTNMPSPSPDYFTWNLTWIMKDSFPFLSHRSRYGLECSFDFPCELEYSPPLHDLRNQSWSWRRIPSEEASQMDLLDGPGAERSKEMPRGSFLLLNTSADSKHTILSPWMRSSSEHCTLAVSVHRHLQPSGRYIAQLLPHNEAAREILLMPTPGKHGWTVLQGRIGRPDNPFRVALEYISSGNRSLSAVDFFALKNCSEGTSPGSKMALQSSFTCWNGTVLQLGQACDFHQDCAQGEDESQMCRKLPVGFYCNFEDGFCGWTQGTLSPHTPQWQVRTLKDARFQDHQDHALLLSTTDVPASESATVTSATFPAPIKSSPCELRMSWLIRGVLRGNVSLVLVENKTGKEQGRMVWHVAAYEGLSLWQWMVLPLLDVSDRFWLQMVAWWGQGSRAIVAFDNISISLDCYLTISGEDKILQNTAPKSRNLFERNPNKELKPGENSPRQTPIFDPTVHWLFTTCGASGPHGPTQAQCNNAYQNSNLSVEVGSEGPLKGIQIWKVPATDTYSISGYGAAGGKGGKNTMMRSHGVSVLGIFNLEKDDMLYILVGQQGEDACPSTNQLIQKVCIGENNVIEEEIRVNRSVHEWAGGGGGGGGATYVFKMKDGVPVPLIIAAGGGGRAYGAKTDTFHPERLENNSSVLGLNGNSGAAGGGGGWNDNTSLLWAGKSLQEGATGGHSCPQAMKKWGWETRGGFGGGGGGCSSGGGGGGYIGGNAASNNDPEMDGEDGVSFISPLGILYTPALKVMEGHGEVNIKHYLNCSHCEVDECHMDPESHKVICFCDHGTVLAEDGVSCIVSPTPEPHLPLSLILSVVTSALVAALVLAFSGIMIVYRRKHQELQAMQMELQSPEYKLSKLRTSTIMTDYNPNYCFAGKTSSISDLKEVPRKNITLIRGLGHGAFGEVYEGQVSGMPNDPSPLQVAVKTLPEVCSEQDELDFLMEALIISKFNHQNIVRCIGVSLQSLPRFILLELMAGGDLKSFLRETRPRPSQPSSLAMLDLLHVARDIACGCQYLEENHFIHRDIAARNCLLTCPGPGRVAKIGDFGMARDIYRASYYRKGGCAMLPVKWMPPEAFMEGIFTSKTDTWSFGVLLWEIFSLGYMPYPSKSNQEVLEFVTSGGRMDPPKNCPGPVYRIMTQCWQHQPEDRPNFAIILERIEYCTQDPDVINTALPIEYGPLVEEEEKVPVRPKDPEGVPPLLVSQQAKREEERSPAAPPPLPTTSSGKAAKKPTAAEISVRVPRGPAVEGGHVNMAFSQSNPPSELHKVHGSRNKPTSLWNPTYGSWFTEKPTKKNNPIAKKEPHDRGNLGLEGSCTVPPNVATGRLPGASLLLEPSSLTANMKEVPLFRLRHFPCGNVNYGYQQQGLPLEAATAPGAGHYEDTILKSKNSMNQPGP
partner: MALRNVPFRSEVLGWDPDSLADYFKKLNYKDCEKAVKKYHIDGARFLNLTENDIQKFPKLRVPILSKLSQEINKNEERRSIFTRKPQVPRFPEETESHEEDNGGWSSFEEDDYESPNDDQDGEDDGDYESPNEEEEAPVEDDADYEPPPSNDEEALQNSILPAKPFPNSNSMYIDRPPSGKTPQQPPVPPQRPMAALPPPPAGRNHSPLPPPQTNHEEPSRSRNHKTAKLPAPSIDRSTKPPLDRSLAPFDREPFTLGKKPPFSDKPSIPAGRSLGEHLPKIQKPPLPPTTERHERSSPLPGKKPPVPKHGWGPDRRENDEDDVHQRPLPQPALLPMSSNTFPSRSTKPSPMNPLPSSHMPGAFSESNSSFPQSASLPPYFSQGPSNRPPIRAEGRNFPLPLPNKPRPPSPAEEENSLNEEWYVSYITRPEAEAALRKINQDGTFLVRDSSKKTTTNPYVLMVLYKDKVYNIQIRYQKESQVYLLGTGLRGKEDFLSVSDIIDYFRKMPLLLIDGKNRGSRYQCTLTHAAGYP
B2: ALK tyrosine kinase receptor (Homo sapiens), Q9UM73 (parent)
chain: B1 chain
partner: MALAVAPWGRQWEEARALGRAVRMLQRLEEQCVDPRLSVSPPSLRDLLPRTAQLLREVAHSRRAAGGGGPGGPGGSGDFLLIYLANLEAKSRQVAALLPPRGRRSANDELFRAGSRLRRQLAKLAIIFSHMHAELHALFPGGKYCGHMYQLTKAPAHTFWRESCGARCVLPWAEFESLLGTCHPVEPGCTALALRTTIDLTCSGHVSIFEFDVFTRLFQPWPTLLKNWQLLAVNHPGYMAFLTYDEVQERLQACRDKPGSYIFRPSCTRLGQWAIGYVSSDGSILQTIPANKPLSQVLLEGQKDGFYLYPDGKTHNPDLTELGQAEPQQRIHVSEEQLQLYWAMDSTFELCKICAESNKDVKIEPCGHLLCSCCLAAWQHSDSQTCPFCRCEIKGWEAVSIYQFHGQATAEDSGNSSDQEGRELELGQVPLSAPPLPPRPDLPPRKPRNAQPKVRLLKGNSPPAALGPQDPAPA
B3: ALK tyrosine kinase receptor (Homo sapiens), Q9UM73 (parent)
chain: B1 chain
partner: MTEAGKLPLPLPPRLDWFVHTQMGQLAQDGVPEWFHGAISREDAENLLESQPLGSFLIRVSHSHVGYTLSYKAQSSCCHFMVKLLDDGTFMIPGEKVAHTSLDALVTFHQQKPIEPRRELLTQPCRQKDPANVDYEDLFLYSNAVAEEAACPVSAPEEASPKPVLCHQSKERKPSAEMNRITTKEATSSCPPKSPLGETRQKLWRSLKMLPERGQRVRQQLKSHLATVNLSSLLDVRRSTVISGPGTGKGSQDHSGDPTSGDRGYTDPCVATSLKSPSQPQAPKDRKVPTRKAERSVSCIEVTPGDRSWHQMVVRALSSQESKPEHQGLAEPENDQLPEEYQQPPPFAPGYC
B4: ALK tyrosine kinase receptor (Homo sapiens), Q9UM73 (parent)
chain: B1 chain
partner: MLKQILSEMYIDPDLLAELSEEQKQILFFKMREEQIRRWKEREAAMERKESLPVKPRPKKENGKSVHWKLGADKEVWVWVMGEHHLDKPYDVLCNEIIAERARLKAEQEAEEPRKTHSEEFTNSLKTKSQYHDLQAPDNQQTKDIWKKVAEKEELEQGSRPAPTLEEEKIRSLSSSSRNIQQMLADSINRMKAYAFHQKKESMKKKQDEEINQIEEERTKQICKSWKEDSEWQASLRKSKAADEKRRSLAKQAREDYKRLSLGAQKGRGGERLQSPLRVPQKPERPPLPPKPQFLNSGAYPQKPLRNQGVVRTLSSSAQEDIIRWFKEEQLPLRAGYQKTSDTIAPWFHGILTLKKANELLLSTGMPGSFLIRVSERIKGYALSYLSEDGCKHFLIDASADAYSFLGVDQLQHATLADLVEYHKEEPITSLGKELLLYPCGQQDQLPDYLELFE
B5: ALK tyrosine kinase receptor (Homo sapiens), Q9UM73 (parent)
chain: B1 chain
partner: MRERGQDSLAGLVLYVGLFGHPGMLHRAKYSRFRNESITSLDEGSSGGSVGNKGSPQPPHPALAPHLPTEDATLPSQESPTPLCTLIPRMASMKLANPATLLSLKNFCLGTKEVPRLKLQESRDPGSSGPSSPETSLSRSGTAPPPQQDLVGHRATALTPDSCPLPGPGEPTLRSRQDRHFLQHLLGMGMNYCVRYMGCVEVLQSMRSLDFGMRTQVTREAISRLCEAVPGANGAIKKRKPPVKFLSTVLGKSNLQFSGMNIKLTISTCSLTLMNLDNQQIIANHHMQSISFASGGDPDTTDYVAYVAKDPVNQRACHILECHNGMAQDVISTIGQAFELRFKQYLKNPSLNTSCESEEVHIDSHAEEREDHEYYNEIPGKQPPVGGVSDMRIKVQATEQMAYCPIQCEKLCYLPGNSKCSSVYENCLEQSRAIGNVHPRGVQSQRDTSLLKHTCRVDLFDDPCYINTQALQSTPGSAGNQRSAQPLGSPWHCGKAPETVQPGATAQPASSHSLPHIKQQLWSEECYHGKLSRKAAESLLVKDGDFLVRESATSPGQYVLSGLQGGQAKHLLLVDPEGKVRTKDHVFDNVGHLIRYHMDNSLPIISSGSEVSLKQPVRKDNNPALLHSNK
B6: ALK tyrosine kinase receptor (Homo sapiens), Q9UM73 (parent)
chain: B1 chain
partner: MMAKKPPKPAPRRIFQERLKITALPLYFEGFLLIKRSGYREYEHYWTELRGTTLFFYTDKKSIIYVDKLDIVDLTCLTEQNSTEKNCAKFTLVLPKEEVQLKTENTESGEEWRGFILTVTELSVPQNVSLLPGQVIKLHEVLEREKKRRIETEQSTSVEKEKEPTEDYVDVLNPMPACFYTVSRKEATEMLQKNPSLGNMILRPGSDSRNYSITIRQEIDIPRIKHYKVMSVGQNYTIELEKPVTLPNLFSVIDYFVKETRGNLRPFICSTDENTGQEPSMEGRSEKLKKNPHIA
B7: ALK tyrosine kinase receptor (Homo sapiens), Q9UM73 (parent)
chain: B1 chain
partner: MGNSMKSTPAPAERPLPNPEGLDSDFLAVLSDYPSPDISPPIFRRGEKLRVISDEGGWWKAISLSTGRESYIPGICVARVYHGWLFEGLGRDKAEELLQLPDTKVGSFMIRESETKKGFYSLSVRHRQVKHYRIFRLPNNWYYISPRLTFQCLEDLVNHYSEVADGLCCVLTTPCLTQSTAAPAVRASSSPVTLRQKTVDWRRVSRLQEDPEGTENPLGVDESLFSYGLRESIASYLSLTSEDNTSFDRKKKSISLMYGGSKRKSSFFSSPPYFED
B8: ALK tyrosine kinase receptor (Homo sapiens), Q9UM73 (parent)
chain: B1 chain
partner: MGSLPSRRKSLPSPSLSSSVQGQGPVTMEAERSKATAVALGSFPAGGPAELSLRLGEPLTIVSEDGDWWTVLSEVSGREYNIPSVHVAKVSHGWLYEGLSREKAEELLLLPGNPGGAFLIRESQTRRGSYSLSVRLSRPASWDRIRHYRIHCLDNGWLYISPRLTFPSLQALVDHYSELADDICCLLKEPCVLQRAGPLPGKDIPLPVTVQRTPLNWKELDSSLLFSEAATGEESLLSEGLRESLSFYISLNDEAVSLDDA
B9: ALK tyrosine kinase receptor (Homo sapiens), Q9UM73 (parent)
chain: B1 chain
partner: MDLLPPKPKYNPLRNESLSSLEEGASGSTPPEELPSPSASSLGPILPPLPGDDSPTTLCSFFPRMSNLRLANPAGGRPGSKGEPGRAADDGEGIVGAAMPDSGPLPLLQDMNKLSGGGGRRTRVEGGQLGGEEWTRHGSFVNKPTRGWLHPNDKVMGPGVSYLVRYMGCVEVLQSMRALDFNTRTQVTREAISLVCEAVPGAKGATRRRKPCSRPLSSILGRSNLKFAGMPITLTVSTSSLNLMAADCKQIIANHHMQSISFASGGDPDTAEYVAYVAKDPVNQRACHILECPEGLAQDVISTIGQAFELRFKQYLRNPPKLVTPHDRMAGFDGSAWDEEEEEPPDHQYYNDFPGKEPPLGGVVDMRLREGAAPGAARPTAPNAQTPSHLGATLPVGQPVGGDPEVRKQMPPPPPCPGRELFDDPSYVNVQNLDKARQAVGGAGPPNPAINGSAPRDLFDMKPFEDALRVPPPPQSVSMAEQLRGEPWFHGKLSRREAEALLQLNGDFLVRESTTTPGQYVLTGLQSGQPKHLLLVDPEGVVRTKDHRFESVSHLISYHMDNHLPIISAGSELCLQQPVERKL

Variants of: B1
Conditions: with lcp2_human LCP2, Q13094

Row | effect of a mutation on the interaction | Variant
1 | increasing interaction strength | F1245C
2 | decreasing interaction strength | I1250T
3 | increasing interaction strength | L1196M

Variants of: B2
Conditions: with cblc_human CBLC

Row | effect of a mutation on the interaction | Variant
4 | increasing interaction strength | F1245C
5 | decreasing interaction strength | I1250T
6 | increasing interaction strength | L1196M

Variants of: B3
Conditions: with hsh2d_human HSH2D

Row | effect of a mutation on the interaction | Variant
7 | increasing interaction strength | F1245C
8 | increasing interaction strength | L1196M
9 | decreasing interaction strength | I1250T

Variants of: B4
Conditions: with sh24a_human SH2D4A

Row | effect of a mutation on the interaction | Variant
10 | increasing interaction strength | L1196M
11 | decreasing interaction strength | I1250T
12 | increasing interaction strength | F1245C

Variants of: B5
Conditions: with shc4_human SHC4, Q6S5L8

Row | effect of a mutation on the interaction | Variant
13 | increasing interaction strength | F1245C
14 | decreasing interaction strength | I1250T
15 | increasing interaction strength | L1196M

Variants of: B6
Conditions: with stap1_human STAP1, Q9ULZ2

Row | effect of a mutation on the interaction | Variant
16 | increasing interaction strength | L1196M
17 | increasing interaction strength | F1245C
18 | decreasing interaction strength | I1250T

Variants of: B7
Conditions: with slap1_human SLA

Row | effect of a mutation on the interaction | Variant
19 | decreasing interaction strength | I1250T
20 | increasing interaction strength | L1196M
21 | increasing interaction strength | F1245C

Variants of: B8
Conditions: with slap2_human SLA2, Q9H6Q3

Row | effect of a mutation on the interaction | Variant
22 | increasing interaction strength | F1245C
23 | decreasing interaction strength | I1250T
24 | increasing interaction strength | L1196M

Variants of: B9
Conditions: with shc1_human SHC1, P29353

Row | effect of a mutation on the interaction | Variant
25 | decreasing interaction strength | I1250T
